Test results as given in publication PMC6555819, “Comprehensive study of nuclear receptor DNA binding provides a revised framework for understanding receptor specificity”.

B1: NRC3_wobSeed49_DR2_G16A_o1 (dsDNA)
DNA 1: GCCAAACTAGGTCAAAAGGTCAAAGTCCGCTTCCCGGCGATTGACAGCGTAGAATGAAGG
DNA 2: CCTTCATTCTACGCTGTCAATCGCCGGGAAGCGGACTTTGACCTTTTGACCTAGTTTGGC
B2: NRC3_wobSeed36_DR1_T8G_o1 (dsDNA)
DNA 1: GCCCGACGGGGGCAAAGGTTACCATACTCAGTACGAGCGATTGACAGCGTAGAATGAAGG
DNA 2: CCTTCATTCTACGCTGTCAATCGCTCGTACTGAGTATGGTAACCTTTGCCCCCGTCGGGC
B3: NRC3_wobSeed5_DR0_C8G_o1 (dsDNA)
DNA 1: GCCCTTAGGGGTCAAGGTTATAGCACGGGTGGTACGGCGATTGACAGCGTAGAATGAAGG
DNA 2: CCTTCATTCTACGCTGTCAATCGCCGTACCACCCGTGCTATAACCTTGACCCCTAAGGGC
B4: NRC3_wobSeed85_DR3_C7A_o1 (dsDNA)
DNA 1: GCCGTCAAAGGTCAGAGAGGTCAGTGAATGCCGAGTGCGATTGACAGCGTAGAATGAAGG
DNA 2: CCTTCATTCTACGCTGTCAATCGCACTCGGCATTCACTGACCTCTCTGACCTTTGACGGC
B5: NRC3_wobSeed58_DR2_G14A_o1 (dsDNA)
DNA 1: GCATCGAAAGGTCATGAGGTGAGTATACAGAAAGGCGCGATTGACAGCGTAGAATGAAGG
DNA 2: CCTTCATTCTACGCTGTCAATCGCGCCTTTCTGTATACTCACCTCATGACCTTTCGATGC
B6: NRC3_wobSeed125_DR5_C8G_o1 (dsDNA)
DNA 1: GCCCTTAGGGGTCACTGACAGGTTATAGCATTTGGAGCGATTGACAGCGTAGAATGAAGG
DNA 2: CCTTCATTCTACGCTGTCAATCGCTCCAAATGCTATAACCTGTCAGTGACCCCTAAGGGC
B7: NRC3_random_hg19_341_o1 (dsDNA)
DNA 1: GCCCCAGATGACGGGTTGATATGGGCAGCAAACCGCGCGATTGACAGCGTAGAATGAAGG
DNA 2: CCTTCATTCTACGCTGTCAATCGCGCGGTTTGCTGCCCATATCAACCCGTCATCTGGGGC
B8: NRC3_wobSeed99_DR4_T22G_o1 (dsDNA)
DNA 1: GCTCTCGGAGGACACGAAAGGGCAGAGCTCGACATCGCGATTGACAGCGTAGAATGAAGG
DNA 2: CCTTCATTCTACGCTGTCAATCGCGATGTCGAGCTCTGCCCTTTCGTGTCCTCCGAGAGC
B9: NRC3_random_hg19_186_o1 (dsDNA)
DNA 1: GCTTTCGTTACTGTAGCCTTGTAGTATAGTTTGAAGGCGATTGACAGCGTAGAATGAAGG
DNA 2: CCTTCATTCTACGCTGTCAATCGCCTTCAAACTATACTACAAGGCTACAGTAACGAAAGC
B10: NRC3_random_hg19_64_o1 (dsDNA)
DNA 1: GCAATCCAATTGGAGGTGCACTCGTCTAAGTGGTCCGCGATTGACAGCGTAGAATGAAGG
DNA 2: CCTTCATTCTACGCTGTCAATCGCGGACCACTTAGACGAGTGCACCTCCAATTGGATTGC
B11: NRC3_wobSeed72_DR2_C25G_o1 (dsDNA)
DNA 1: GCTCGAGTAGGTTACGGGGGCATTGAGGGATGAAGAGCGATTGACAGCGTAGAATGAAGG
DNA 2: CCTTCATTCTACGCTGTCAATCGCTCTTCATCCCTCAATGCCCCCGTAACCTACTCGAGC
B12: NRC3_random_hg19_155_o1 (dsDNA)
DNA 1: GCGAGTGCTATGCTTGCTTTCTATCTCATACAGTATGCGATTGACAGCGTAGAATGAAGG
DNA 2: CCTTCATTCTACGCTGTCAATCGCATACTGTATGAGATAGAAAGCAAGCATAGCACTCGC
B13: NRC3_random_hg19_212_o1 (dsDNA)
DNA 1: GCAAGCATCCAGGACAAGGAAAGAGTAATCAATGGCGCGATTGACAGCGTAGAATGAAGG
DNA 2: CCTTCATTCTACGCTGTCAATCGCGCCATTGATTACTCTTTCCTTGTCCTGGATGCTTGC
B14: NRC3_wobSeed130_DR5_G22A_o1 (dsDNA)
DNA 1: GCCTCGAAAGGTCGTGCTCAGATGAGTATACCAAACGCGATTGACAGCGTAGAATGAAGG
DNA 2: CCTTCATTCTACGCTGTCAATCGCGTTTGGTATACTCATCTGAGCACGACCTTTCGAGGC
B15: NRC3_random_hg19_49_o1 (dsDNA)
DNA 1: GCACAGAAGGTAGCAAAGTAATCATGCTAGTGGTCAGCGATTGACAGCGTAGAATGAAGG
DNA 2: CCTTCATTCTACGCTGTCAATCGCTGACCACTAGCATGATTACTTTGCTACCTTCTGTGC
B16: NRC3_random_hg19_112_o1 (dsDNA)
DNA 1: GCATCTGGCATATGTTCACTCCATGTACCACAGATAGCGATTGACAGCGTAGAATGAAGG
DNA 2: CCTTCATTCTACGCTGTCAATCGCTATCTGTGGTACATGGAGTGAACATATGCCAGATGC
B17: NRC3_wobSeed10_DR0_G6A_o1 (dsDNA)
DNA 1: GCATCAAAAGGTCGAGGTGAGTATAGAGAAAGGGAAGCGATTGACAGCGTAGAATGAAGG
DNA 2: CCTTCATTCTACGCTGTCAATCGCTTCCCTTTCTCTATACTCACCTCGACCTTTTGATGC
B18: NRC3_wobSeed77_DR3_G19C_o1 (dsDNA)
DNA 1: GCACTTACGGGTCAACGACGTTATAGCACGCGTATAGCGATTGACAGCGTAGAATGAAGG
DNA 2: CCTTCATTCTACGCTGTCAATCGCTATACGCGTGCTATAACGTCGTTGACCCGTAAGTGC
B19: NRC3_random_hg19_205_o1 (dsDNA)
DNA 1: GCGAATCATCATGAGCTCAGAATGATCCTAGGCAGAGCGATTGACAGCGTAGAATGAAGG
DNA 2: CCTTCATTCTACGCTGTCAATCGCTCTGCCTAGGATCATTCTGAGCTCATGATGATTCGC
B20: NRC3_random_hg19_37_o1 (dsDNA)
DNA 1: GCTTTGCCAGGTGCGGTGGCTCAATGCCTGTAATCCGCGATTGACAGCGTAGAATGAAGG
DNA 2: CCTTCATTCTACGCTGTCAATCGCGGATTACAGGCATTGAGCCACCGCACCTGGCAAAGC

These binders were tested against RXRa (Homo sapiens, UniProt P19793) (assay: no ligand; PBM; 180 nM; PBS pH 7.4, 2% milk, 0.02% Triton X-100, 1 mM DTT, BSA, 0.4 mg/ml salmon testes DNA). Details: tags: His cleaved; chain copies: 2; label: surface-attached array probe.

Row | Binder | binding signal
1 | B1 | 9.09 PBM z-score against 500 random probes
2 | B2 | 7.82 PBM z-score against 500 random probes
3 | B3 | 9.14 PBM z-score against 500 random probes
4 | B4 | 7.98 PBM z-score against 500 random probes
5 | B5 | 8.9 PBM z-score against 500 random probes
6 | B6 | 9.59 PBM z-score against 500 random probes

Each binder was assayed against RARb:RXRa (Homo sapiens, UniProt P10826;P19793 full;full) (assay: no ligand; PBM; 270 nM : 90 nM RXRa; PBS pH 7.4, 2% milk, 0.02% Triton X-100, 1 mM DTT, BSA, 0.4 mg/ml salmon testes DNA). Details: tags: His kept;His cleaved; copies: 1;1; label: surface-attached array probe.
In short: (§1)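 On custom Agilent 4×180K arrays, double-stranded probes with 34-nt variable regions carried direct-repeat seeds, single-nucleotide variants, half-site ablations or random human genomic background. Ligand-free nuclear receptor dimers were applied for 1 h, and binding was read with antibodies against each partner (one per run). Binding z-scores come from regression-normalized fluorescence, with the random background probes as reference.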

Chain of RARb:RXRa (P10826 whole entry, chain 1 of 2): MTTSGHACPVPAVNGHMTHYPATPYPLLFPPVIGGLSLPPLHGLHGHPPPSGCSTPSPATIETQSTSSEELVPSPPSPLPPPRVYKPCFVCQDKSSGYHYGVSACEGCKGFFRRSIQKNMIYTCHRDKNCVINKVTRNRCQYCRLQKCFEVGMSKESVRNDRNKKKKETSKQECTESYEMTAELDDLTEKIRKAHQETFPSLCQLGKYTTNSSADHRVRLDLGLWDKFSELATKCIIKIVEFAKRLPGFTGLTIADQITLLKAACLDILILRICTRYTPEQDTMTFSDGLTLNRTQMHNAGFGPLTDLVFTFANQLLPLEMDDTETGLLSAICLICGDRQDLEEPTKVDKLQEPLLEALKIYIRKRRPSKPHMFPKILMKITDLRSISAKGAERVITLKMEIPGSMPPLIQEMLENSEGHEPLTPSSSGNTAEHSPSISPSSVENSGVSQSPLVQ
Chain of RARb:RXRa (P19793 whole entry, chain 2 of 2): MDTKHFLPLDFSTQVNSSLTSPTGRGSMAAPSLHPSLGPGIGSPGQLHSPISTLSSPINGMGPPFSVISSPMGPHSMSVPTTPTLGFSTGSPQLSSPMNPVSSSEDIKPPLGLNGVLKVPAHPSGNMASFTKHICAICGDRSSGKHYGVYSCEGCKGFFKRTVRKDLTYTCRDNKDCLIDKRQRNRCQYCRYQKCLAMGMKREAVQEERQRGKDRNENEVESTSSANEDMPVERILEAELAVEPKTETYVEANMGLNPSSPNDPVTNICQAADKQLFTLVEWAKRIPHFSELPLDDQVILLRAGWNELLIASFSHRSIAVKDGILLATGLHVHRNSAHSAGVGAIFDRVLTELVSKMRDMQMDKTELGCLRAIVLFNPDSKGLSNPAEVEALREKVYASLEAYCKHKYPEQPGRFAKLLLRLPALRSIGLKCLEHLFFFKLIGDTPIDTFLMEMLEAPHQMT

Row | Binder | binding signal
7 | B1 | 6 PBM z-score against 500 random probes
8 | B3 | 5.75 PBM z-score against 500 random probes
9 | B4 | 5.97 PBM z-score against 500 random probes
10 | B5 | 6.03 PBM z-score against 500 random probes
11 | B6 | 5.48 PBM z-score against 500 random probes

What follows are binders tested against PXR:RXRa (Homo sapiens, UniProt O75469;P19793 full;full) in the same assay as above. Details: tags: His kept;His cleaved; copies: 1;1; label: surface-attached array probe.
In short: as §1

Chain of PXR:RXRa (O75469 whole entry, chain 1 of 2): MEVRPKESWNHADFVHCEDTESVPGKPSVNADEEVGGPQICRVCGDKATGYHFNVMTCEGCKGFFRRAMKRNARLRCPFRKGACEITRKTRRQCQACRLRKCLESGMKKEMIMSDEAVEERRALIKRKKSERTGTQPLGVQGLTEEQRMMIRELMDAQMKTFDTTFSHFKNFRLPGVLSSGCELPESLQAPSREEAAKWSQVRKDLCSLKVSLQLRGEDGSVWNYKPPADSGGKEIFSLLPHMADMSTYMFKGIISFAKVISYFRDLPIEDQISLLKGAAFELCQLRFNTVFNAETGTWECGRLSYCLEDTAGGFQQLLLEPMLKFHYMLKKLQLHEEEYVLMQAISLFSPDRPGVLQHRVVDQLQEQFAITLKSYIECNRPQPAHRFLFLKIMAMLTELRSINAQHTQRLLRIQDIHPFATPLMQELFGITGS
Chain of PXR:RXRa (P19793 whole entry, chain 2 of 2): as the sequence (P19793 whole entry, chain 2 of 2) above

Row | Binder | binding signal
12 | B7 | -0.3 PBM z-score against 500 random probes
13 | B8 | 0.23 PBM z-score against 500 random probes
14 | B9 | 0.22 PBM z-score against 500 random probes
15 | B10 | -0.06 PBM z-score against 500 random probes
16 | B11 | 3.09 PBM z-score against 500 random probes

These binders were tested against LXRa:RXRa (Homo sapiens, UniProt Q13133;P19793 full;full) in the same assay as above. Details: tags: His kept;His cleaved; copies: 1;1; label: surface-attached array probe.
In short: as §1

Row | Binder | binding signal
17 | B1 | 7.1 PBM z-score against 500 random probes
18 | B12 | -0.77 PBM z-score against 500 random probes
19 | B3 | 6.63 PBM z-score against 500 random probes
20 | B13 | -0.29 PBM z-score against 500 random probes
21 | B5 | 6.98 PBM z-score against 500 random probes
22 | B14 | 3.83 PBM z-score against 500 random probes
23 | B15 | -0.5 PBM z-score against 500 random probes
24 | B16 | -0.28 PBM z-score against 500 random probes

Each binder was assayed against RARa:RXRa (Homo sapiens, UniProt P10276;P19793 full;full) in the same assay as above. Details: tags: His kept;His cleaved; copies: 1;1; label: surface-attached array probe.
In short: as §1

Chain of RARa:RXRa (P10276 whole entry, chain 1 of 2): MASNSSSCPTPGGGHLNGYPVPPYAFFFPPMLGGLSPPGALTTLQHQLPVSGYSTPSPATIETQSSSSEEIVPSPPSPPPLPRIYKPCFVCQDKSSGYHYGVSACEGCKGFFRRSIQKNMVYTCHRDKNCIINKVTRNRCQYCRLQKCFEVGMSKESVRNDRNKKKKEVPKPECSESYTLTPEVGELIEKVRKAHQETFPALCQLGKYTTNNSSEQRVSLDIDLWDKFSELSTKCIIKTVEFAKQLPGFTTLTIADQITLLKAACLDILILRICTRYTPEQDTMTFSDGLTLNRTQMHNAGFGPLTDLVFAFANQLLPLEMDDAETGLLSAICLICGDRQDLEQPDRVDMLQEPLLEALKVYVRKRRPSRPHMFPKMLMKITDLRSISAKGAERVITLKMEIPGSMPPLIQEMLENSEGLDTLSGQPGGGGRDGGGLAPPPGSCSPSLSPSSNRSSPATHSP
Chain of RARa:RXRa (P19793 whole entry, chain 2 of 2): as the sequence (P19793 whole entry, chain 2 of 2) above

Row | Binder | binding signal
25 | B7 | -0.22 PBM z-score against 500 random probes
26 | B1 | 8.77 PBM z-score against 500 random probes
27 | B2 | 7.46 PBM z-score against 500 random probes
28 | B12 | -1.16 PBM z-score against 500 random probes
29 | B8 | 0.47 PBM z-score against 500 random probes
30 | B9 | 0.29 PBM z-score against 500 random probes
31 | B10 | -0.24 PBM z-score against 500 random probes
32 | B3 | 7.21 PBM z-score against 500 random probes
33 | B13 | -0.03 PBM z-score against 500 random probes
34 | B4 | 7.18 PBM z-score against 500 random probes
35 | B5 | 7.09 PBM z-score against 500 random probes
36 | B17 | 3.83 PBM z-score against 500 random probes
37 | B14 | 3.27 PBM z-score against 500 random probes
38 | B18 | 4.03 PBM z-score against 500 random probes
39 | B19 | -0.66 PBM z-score against 500 random probes
40 | B6 | 7.93 PBM z-score against 500 random probes
41 | B20 | -0.74 PBM z-score against 500 random probes
42 | B15 | -0.41 PBM z-score against 500 random probes
43 | B11 | 3.03 PBM z-score against 500 random probes
44 | B16 | -0.07 PBM z-score against 500 random probes

What follows are binders tested against LXRb:RXRa (Homo sapiens, UniProt P55055;P19793 full;full) in the same assay as above. Details: tags: His kept;His cleaved; copies: 1;1; label: surface-attached array probe.
In short: as §1

Chain of LXRb:RXRa (P55055 whole entry, chain 1 of 2): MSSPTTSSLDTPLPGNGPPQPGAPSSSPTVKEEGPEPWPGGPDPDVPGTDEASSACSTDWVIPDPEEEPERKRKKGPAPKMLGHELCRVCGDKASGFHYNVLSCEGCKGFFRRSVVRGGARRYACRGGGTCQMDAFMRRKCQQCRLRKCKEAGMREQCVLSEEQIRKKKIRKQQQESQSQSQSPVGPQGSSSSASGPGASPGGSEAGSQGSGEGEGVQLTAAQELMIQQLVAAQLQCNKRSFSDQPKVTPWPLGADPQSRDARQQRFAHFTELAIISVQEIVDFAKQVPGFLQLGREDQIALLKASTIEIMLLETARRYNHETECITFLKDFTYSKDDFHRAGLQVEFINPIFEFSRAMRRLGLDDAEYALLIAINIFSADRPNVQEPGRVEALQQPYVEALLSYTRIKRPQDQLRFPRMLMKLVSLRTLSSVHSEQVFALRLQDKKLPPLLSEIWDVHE
Chain of LXRb:RXRa (P19793 whole entry, chain 2 of 2): as the sequence (P19793 whole entry, chain 2 of 2) above

Row | Binder | binding signal
45 | B1 | 6.34 PBM z-score against 500 random probes
46 | B2 | 5.85 PBM z-score against 500 random probes
47 | B12 | -0.78 PBM z-score against 500 random probes
48 | B3 | 5.92 PBM z-score against 500 random probes
49 | B4 | 5.98 PBM z-score against 500 random probes
50 | B5 | 5.92 PBM z-score against 500 random probes
51 | B17 | 3.24 PBM z-score against 500 random probes
52 | B18 | 3.79 PBM z-score against 500 random probes
53 | B19 | -0.63 PBM z-score against 500 random probes
54 | B6 | 6.07 PBM z-score against 500 random probes
55 | B20 | -1.03 PBM z-score against 500 random probes

These binders were tested against PPARa:RXRa (Homo sapiens, UniProt Q07869;P19793 full;full) in the same assay as above. Details: tags: GST kept;His cleaved; copies: 1;1; label: surface-attached array probe.
In short: as §1

Chain of PPARa:RXRa (Q07869 whole entry, chain 1 of 2): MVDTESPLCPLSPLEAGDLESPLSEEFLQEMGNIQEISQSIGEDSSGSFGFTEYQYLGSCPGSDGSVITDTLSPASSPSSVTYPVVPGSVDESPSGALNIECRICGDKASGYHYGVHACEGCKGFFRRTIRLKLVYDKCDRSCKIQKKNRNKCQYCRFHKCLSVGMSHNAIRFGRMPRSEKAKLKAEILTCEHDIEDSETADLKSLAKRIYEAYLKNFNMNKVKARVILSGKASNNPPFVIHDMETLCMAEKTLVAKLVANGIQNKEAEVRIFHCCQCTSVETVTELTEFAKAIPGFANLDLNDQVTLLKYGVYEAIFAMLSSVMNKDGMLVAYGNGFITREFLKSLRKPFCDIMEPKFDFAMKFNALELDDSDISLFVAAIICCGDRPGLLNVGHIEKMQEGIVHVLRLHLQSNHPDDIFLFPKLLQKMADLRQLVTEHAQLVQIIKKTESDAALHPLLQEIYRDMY
Chain of PPARa:RXRa (P19793 whole entry, chain 2 of 2): as the sequence (P19793 whole entry, chain 2 of 2) above

Row | Binder | binding signal
56 | B1 | 7.14 PBM z-score against 500 random probes
57 | B12 | -0.78 PBM z-score against 500 random probes
58 | B3 | 6.97 PBM z-score against 500 random probes
59 | B5 | 6.95 PBM z-score against 500 random probes
60 | B6 | 6.95 PBM z-score against 500 random probes

What follows are binders tested against VDR:RXRa (Homo sapiens, UniProt P11473;P19793 full;full) in the same assay as above. Details: tags: His kept;His cleaved; copies: 1;1; label: surface-attached array probe.
In short: as §1

Row | Binder | binding signal
61 | B13 | 0.09 PBM z-score against 500 random probes
62 | B4 | 7.92 PBM z-score against 500 random probes
63 | B6 | 6.5 PBM z-score against 500 random probes

Each binder was assayed against FXR:RXRa (Homo sapiens, UniProt Q96RI1;P19793 full;full) in the same assay as above. Details: tags: His kept;His cleaved; copies: 1;1; label: surface-attached array probe.
In short: as §1

Row | Binder | binding signal
64 | B3 | 8.51 PBM z-score against 500 random probes
65 | B4 | 8.03 PBM z-score against 500 random probes
66 | B5 | 8.53 PBM z-score against 500 random probes
67 | B6 | 8.59 PBM z-score against 500 random probes

These binders were tested against RARg:RXRa (Homo sapiens, UniProt P13631;P19793 full;full) in the same assay as above. Details: tags: His kept;His cleaved; copies: 1;1; label: surface-attached array probe.
In short: as §1

Row | Binder | binding signal
68 | B1 | 8.94 PBM z-score against 500 random probes
69 | B12 | -0.56 PBM z-score against 500 random probes
70 | B3 | 7.74 PBM z-score against 500 random probes
71 | B4 | 7.93 PBM z-score against 500 random probes
72 | B5 | 7.79 PBM z-score against 500 random probes
73 | B6 | 8.18 PBM z-score against 500 random probes
